Results published in patent US20160002321A1 (HER MAJESTY THE QUEEN IN RIGHT OF CANADA AS REPRESENTED BY …, published 2016).

T1: recombinant lethal factor (rLF) (Bacillus anthracis, UniProt P15917 34-809)
T1 sequence: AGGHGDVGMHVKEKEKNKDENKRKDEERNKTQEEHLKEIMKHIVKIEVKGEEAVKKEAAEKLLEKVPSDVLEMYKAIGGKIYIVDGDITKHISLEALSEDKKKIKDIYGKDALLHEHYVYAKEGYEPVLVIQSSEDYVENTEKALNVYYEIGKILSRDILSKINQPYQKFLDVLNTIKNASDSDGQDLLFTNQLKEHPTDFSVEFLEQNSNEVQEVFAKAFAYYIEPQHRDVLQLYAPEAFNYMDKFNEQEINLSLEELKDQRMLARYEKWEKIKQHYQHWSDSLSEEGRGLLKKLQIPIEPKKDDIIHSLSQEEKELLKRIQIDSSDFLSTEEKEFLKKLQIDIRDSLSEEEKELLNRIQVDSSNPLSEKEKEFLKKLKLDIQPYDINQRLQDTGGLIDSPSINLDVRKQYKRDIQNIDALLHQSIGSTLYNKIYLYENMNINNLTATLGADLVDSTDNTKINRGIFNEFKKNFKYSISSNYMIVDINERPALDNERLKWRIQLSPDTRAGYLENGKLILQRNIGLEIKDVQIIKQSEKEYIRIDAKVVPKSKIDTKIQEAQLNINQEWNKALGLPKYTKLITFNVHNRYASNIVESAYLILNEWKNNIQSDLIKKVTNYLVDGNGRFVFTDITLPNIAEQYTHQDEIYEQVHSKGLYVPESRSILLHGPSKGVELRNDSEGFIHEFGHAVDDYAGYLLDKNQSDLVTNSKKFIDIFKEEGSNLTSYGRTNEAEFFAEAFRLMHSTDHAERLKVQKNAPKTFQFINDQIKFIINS


Experiments:
[1] = target: recombinant anthrax protective antigen (rPA) (Bacillus anthracis, UniProt P13423 30-764); assay: SPR, Biacore 2000, rPA on a CM5 chip, MAb in solution
Sequence of recombinant anthrax protective antigen (rPA) (P13423 30-764): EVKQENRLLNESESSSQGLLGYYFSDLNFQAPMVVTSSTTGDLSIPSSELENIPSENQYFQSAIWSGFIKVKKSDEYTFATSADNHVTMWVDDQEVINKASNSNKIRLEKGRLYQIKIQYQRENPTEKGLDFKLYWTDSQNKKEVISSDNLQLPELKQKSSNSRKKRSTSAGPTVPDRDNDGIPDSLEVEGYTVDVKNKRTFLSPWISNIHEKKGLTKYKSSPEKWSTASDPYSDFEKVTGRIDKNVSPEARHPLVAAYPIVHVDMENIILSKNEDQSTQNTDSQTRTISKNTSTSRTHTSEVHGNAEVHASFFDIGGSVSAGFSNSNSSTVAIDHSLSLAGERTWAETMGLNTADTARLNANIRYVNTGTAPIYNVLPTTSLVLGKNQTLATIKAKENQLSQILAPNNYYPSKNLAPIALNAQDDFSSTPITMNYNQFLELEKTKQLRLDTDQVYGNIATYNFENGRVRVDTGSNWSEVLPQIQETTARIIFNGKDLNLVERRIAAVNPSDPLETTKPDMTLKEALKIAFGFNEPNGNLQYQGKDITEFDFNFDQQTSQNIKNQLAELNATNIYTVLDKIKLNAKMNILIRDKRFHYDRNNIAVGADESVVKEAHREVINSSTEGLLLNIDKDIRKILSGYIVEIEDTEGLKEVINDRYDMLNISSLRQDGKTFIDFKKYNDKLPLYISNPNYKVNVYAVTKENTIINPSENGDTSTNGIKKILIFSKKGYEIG

[2] = target: chymotrypsin digested rPA (47 and 37 kDa fragments) (Bacillus anthracis, UniProt P13423 30-343; P13423 344-764); assay: Western immunoblot of chymotrypsin digested rPA
Sequence of chymotrypsin digested rPA (47 and 37 kDa fragments) (P13423 30-343 limits assumed, chain 1 of 2): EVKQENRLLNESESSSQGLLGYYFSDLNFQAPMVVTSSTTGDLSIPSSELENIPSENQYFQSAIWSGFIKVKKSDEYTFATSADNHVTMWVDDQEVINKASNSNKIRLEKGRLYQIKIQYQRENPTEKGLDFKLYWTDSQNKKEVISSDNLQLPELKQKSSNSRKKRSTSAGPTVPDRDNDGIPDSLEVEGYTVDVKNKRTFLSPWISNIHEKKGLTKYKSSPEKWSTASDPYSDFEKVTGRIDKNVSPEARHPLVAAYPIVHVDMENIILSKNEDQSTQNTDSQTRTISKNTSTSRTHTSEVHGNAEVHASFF
Sequence of chymotrypsin digested rPA (47 and 37 kDa fragments) (P13423 344-764 limits assumed, chain 2 of 2): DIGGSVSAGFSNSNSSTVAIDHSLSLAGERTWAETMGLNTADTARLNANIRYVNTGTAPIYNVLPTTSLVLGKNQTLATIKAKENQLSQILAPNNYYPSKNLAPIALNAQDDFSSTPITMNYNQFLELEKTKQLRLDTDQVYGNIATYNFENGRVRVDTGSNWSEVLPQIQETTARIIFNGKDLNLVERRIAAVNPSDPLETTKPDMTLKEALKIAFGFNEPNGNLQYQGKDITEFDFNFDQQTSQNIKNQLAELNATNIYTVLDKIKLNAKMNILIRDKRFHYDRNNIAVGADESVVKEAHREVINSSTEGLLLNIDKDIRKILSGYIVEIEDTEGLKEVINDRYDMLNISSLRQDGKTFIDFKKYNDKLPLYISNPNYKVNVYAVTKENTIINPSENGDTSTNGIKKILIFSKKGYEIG

[3] = target: bovine serum albumin (BSA) (bovine, UniProt P02769 25-607); assay: endpoint ELISA, antigen coated at 100 ng/well
Sequence of bovine serum albumin (BSA) (P02769 25-607 limits assumed): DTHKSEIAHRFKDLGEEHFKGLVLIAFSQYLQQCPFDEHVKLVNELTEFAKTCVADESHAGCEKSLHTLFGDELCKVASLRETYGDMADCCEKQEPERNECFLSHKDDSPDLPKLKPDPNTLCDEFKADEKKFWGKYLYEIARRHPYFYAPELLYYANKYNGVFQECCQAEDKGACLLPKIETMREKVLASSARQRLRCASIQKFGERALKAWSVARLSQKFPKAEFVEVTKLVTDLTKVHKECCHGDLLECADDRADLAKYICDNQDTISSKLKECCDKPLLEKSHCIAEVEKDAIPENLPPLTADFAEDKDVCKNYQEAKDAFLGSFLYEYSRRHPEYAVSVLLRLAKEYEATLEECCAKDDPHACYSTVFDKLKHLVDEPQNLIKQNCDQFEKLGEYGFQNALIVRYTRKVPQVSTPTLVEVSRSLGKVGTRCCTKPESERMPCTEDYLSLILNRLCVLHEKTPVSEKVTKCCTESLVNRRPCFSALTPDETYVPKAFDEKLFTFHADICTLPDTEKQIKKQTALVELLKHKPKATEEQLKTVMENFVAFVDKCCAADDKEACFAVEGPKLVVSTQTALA

[4] = target: T1, recombinant lethal factor (rLF); assay: Western immunoblot, 2 µg denatured protein

| Binder | Kd [1] [nM] | koff [1] [s⁻¹] | kon [1] [M⁻¹ s⁻¹] | binding result [2] | binding result [3] | binding result [4] |
| --- | --- | --- | --- | --- | --- | --- |
| F20G77 (antibody) chain 1: EVQLEESGPELVSPGVSVKISCEGSGYTFTDYAMHWVKQSHARGLEWIGVIGSYSGNAHHNLNFKDKATMTVDKSSSTAYMELARLTSDDSAIYYCAY chain 2: ELVMTQSPLSLPVSLGDQASISCRSSQSIIHSNGDTFLEWFLQKPGQSPKLLIYKVSNRFSGVPDRFSGSGSGTDFTLKISRVEAEDLGVYYCFQGSHVPLTFGAGTKLELK | 0.46 | 1.4e-06 | 3100 |  |  |  |
| F20G76 (antibody, V domains shown) VH: EVQLEESGPELVKPGASVKVSCKASGYSFTDYNMYWVKQSHGTSLEWIGVIDPNNGVTSYNQKFKDKATLTADKSSSTAFMHLNSLTSEDSAVYYCSRGGLDYWGQGTTLTVSS VL: ELVMTQSPLSLPVSLGDQASISCRSSQSIIHSNGDTFLEWFLQKPGQSPKLLIYKVSNRFSGVPDRFSGSGSGTDFTLKISRVEAEDLGVYYCFQGSHVPLTFGAGTKLELKR | 18.5 | 6.8e-05 | 4000 | no binding | no binding | no binding |
